Test results taken from patent US20160324977A1.
Where no end group is shown, it is not given here.

Molecular target: purified human fibrinogen (human) (UniProt P02671)
Test: cell-based or functional assay

Sequence of purified human fibrinogen (human) (P02671 20-629 limits assumed, chain 1 of 3): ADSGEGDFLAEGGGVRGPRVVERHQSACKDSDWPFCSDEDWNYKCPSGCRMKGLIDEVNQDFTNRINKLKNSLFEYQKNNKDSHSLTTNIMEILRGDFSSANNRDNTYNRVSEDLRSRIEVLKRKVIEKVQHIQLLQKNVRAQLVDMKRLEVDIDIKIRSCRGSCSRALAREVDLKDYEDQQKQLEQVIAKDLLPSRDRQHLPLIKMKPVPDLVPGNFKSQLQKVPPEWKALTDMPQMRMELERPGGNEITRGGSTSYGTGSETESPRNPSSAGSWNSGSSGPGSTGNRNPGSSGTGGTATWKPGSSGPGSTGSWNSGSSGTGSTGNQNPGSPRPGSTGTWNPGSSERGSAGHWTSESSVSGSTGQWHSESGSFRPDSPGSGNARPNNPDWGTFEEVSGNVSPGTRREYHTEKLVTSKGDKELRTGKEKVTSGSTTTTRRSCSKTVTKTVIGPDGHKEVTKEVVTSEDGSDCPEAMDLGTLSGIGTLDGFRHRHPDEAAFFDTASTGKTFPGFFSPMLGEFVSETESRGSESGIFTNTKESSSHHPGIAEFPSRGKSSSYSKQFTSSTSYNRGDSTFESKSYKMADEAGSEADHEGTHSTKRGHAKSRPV
Sequence of purified human fibrinogen (human) (P02675 31-491 limits assumed, chain 2 of 3, further chain): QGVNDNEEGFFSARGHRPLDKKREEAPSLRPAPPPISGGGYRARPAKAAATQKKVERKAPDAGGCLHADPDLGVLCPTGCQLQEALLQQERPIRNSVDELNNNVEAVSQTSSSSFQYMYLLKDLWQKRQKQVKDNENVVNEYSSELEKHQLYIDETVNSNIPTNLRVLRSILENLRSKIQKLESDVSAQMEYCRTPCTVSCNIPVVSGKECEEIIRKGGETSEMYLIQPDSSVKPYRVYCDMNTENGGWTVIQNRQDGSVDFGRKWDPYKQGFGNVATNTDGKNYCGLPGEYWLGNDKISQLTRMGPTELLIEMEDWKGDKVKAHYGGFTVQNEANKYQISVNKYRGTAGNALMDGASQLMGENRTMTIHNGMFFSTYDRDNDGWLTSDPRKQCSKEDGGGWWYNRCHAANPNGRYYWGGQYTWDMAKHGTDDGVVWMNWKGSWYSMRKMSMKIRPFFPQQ
Sequence of purified human fibrinogen (human) (P02679 other isoform, or with tags, fused parts or gaps limits assumed, chain 3 of 3, further chain): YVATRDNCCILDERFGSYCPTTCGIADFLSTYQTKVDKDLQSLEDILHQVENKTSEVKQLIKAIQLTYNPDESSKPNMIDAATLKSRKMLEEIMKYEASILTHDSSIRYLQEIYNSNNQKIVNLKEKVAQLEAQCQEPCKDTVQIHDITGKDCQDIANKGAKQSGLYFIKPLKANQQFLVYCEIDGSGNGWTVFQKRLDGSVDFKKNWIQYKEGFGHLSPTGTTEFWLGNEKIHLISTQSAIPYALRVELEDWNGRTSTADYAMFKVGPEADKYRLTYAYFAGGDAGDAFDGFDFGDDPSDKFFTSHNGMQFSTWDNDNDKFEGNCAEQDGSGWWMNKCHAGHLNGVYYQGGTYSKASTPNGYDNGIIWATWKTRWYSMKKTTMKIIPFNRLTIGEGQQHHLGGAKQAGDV

Clotting activity (seconds), non-irradiated control: 4.3 s
Clotting activity (seconds), storage for 2 weeks post irradiation: 9.4 s
Clotting activity (seconds), storage for 4 weeks post irradiation: 10 s
B1: Peptide dendrimer No. 13 (peptide, part only)
chain 1: GPRPG
chain 2: GHRPY
modifications: not fully specified (C-terminus); also: chimeric four-branch dendrimer: two copies of each chain, C-termini attached to a branched core of undefined make-up
